Source: publication PMC12363188 (2025)

Columns and labels:
[1] = target: T1, SARS-CoV-2 S-RBD (residues 330 to 530) (SARS-CoV-2, UniProt P0DTC2 330-530); assay: SPR
[2] = target: T1, SARS-CoV-2 S-RBD (residues 330 to 530); assay: SPR; remark: listed apart in the source

B1: Rhinolophus pusillus bat ACE2 ectodomain (residues 18 to 615) (domain or fragment)
chain: QSITEDKAKKFLNDFNSEAEDLSYQSSLASWDYNTNISDENVQKMDEAGAKWSAFYEEQSKIAKNYPLEEIQTDIVKRQLQILQQSGSPVLSEDKSKRLNSILNAMSTIYSTGKVCKPNNPQECLLLEPGLDNIMGTSKDYHERLWAWEGWRAEVGKQLRPLYEEYVVLKNEMARGYHYEDYGDYWRRDYETEESSGPGYSRDQLMKDVDRIFTEIKPLYEHLHAYVRAKLMDTYPLHISPTGCLPAHLLGDMWGRFWTNLYPLTVPFGQKPNIDVTDEMVKQGWDANRIFKEAEKFFVSVGLPNMTEGFWNNSMLTEPGDGRKVVCHPTAWDLGKGDFRIKMCTKVTMEDFLTAHHEMGHIQYDMAYASQPYLLRNGANEGFHEAVGEVMSLSVATPKHLKTMGLLSPDFREDDETEINFLLKQALNIVGTLPFTYMLEKWRWMVFKGEIPKEEWMKKWWEMKREIVGVVEPVPHDETYCDPASLFHVANDYSFIRYYTRTIFEFQFHEALCRIAQHNGPLHKCDISNSTDAGKKLHQMLSVGKSQAWTKTLEDIVGSRNMDVGPLLRYFKPLYTWLQEQSRKSYVGWNTDWSPYSD
- koff [1]: 0.00152 s⁻¹
- Kd [2]: 45.3 nM
